Measurements as given in the nanobody polyreactivity screen of Harvey et al. (2022).

Test: yeast display, Sf9 membrane polyspecificity reagent, FACS + sequencing; frameworks hold sequencing errors
Procedure, shortened: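 Genes from sorted yeast were amplified by colony PCR, read by MiSeq 2 × 250 sequencing and filtered on CDR length. These cells carried a synthetic nanobody library in Saccharomyces cerevisiae BJ5465 and were sorted by FACS into low and high (top ~1%) gates on anti-HA and streptavidin fluorescence. Polyreactivity is labelled according to the gate of origin.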

| Sequence | polyreactivity (PSR sort gate) |
| --- | --- |
| QVQLVESGGGLVQGGGSLRLSCAASGRTLSYYAKGWYRQAPGKERELVADISWSGGSTYYADSVKGRFTISRDNAKNTVYLQMNSLKPEDTAVYYCAARVPGSIRSVGSVKQKYYYWGQGTQVTVSS | high polyreactivity |
| QVQLVESGGGLVQPGGSLLLSCAASRITFDHYAMAWYRRAPGKERELVAAITSGGNTNYADSVKGRFTISRDNAKNPVYLQMNSLKPEDTAVYYCNAGYDVCYYYWGKGTQVTVSS | low polyreactivity |
| QVQLVESGGGLVQPGGSLRLLFAASGSNFVYNEMGWYRQAPGKERELVAGIDWSGDRTYADSVKRRFTNSRDNAKNTVYLQMNSLKQEDTAVKYCNADEWLWDEIIPFAVDYWGQGTQVTVSS | low polyreactivity |
| QVQLVESGGGLVQPGGSLRLSCAASGFIFPSYDMGWYIQAPGKERELVAAITSDVNSYYADSVKGRFTISRDNAKNTVYLQMTSLKPEDTAFYSCNADADDYRDYQDYDYWGQGTQVTVSS | low polyreactivity |
| QVQLVESGGGLVQPGGSLRLSCAASGFTFYPYVMGWYRQAPGKERELVAPINSGGARTYYADSEKGRFTISRDNAKNTVYYQIIRLKPEDTAVYYCAARTVVGGRIYYYWGQGTQVTVSS | low polyreactivity |
| QVQLVESGGGLVQPGGSLRLSCAASGITFIPNALGWYRQAPGKEREFVAGITWSGGRTYYADSVKGRFTISRDNATNTVYLQMNSLKPEDTAVYYCAAEPPTYKLLDFWGQGTQVTVSS | low polyreactivity |
| QVQLVESGGGLVQPGGSLRLSCAASGRTLQRNAMVWYRQAPGKERELVAAISSSGGSTYYADSVKGRFTISRDNAKNTFYLQMNSLKPDDTAVYYCNTDSVYRYHYWGQGTEVTVSS | high polyreactivity |
| QVQLVESGGGLVQPGGSLRLSCAASGSIFSYNTMGWYRQAPGKERELVAAISGRGGSTNYADSVKGRFTISRDNAKNTVYLQMNSLKPEDTAVYYCAKETWVPYRNGFFPLKGDYWGQGTQVTVSS | low polyreactivity |
| QVQLVESGGGLVQPGGSLRLSCAASGSIFYGYTMGWYRQEPGKERELVAAIRKSGGSTNYADSVKWRFTISRDIAKNTVYLQMNSLKPEDTAVYYCAAAYYRGRGYFWGQGTQVTVSS | high polyreactivity |
| QVQLVESGGGLVQPGGSLRLSCAASGSTFDWYAMAWYRQAPGKQRELVAAISSDDSTYYADSVKGRFTISRDNAKNTVYLQMNSLKPEETAVYYCAFDVYSDYGDYGFWGQGTQVTVSS | low polyreactivity |
| QVQLVESGGGLVQSGGSLRLSCAASGFIFKLNAMGWYRPAPGKERELVATITRGGDTKYADSVKGRFTISRDNAKNTVYLQMNSLKPEDTAVEYCAARYTPSSYIYRFYNFYGYDYWGQGTQVTVSS | high polyreactivity |
| QVQLVESGGGLVQSGGSLRLSCAASGFIFLSYAMGWYRQAPGKERELVAAISRRGGSTYYADSVKGRFTISRDNAKYTVYLQMNSLKPEDNAVYYCAADYGRITYNYWGQGTQVTVSS | high polyreactivity |
| QVQLVESGGGLVQSGGSLRLSCAASGITFARYTMGWYRQAPGKVRELVAAISYAGNTYYADSVKGRFTISRDNAKNTVYLQMNSLKPEDTAVYYCAREYTYYPRWVGYDAYGEDYWGQGTQVTVSS | low polyreactivity |
| QVQLVESGGGLVQSGGSLRLSCAASGITFDYYDMGWYRQAPGKERELVATITSDGSTTYADSVKGRFTISRDNAKNTVYLQMNSLKPEDTAVYYCDKRYWSYQYGYRMYYWGQGTQVTVSS | high polyreactivity |
| QVQLVESGGGLVQSGGSLRLSCAASGRIFARNAMGWYRQAPGKEREFVAAITFSGGSTYYADSVKGRFTISRDNAKNTVYLQMNSLKPEDTAVYYCAARSWRVLTREDYWGQGTQVTVSS | high polyreactivity |
| QVQLVESGGGLVQSGGSLRLSCAASGRIFHYNAMGWYRQAPGKERELVAVITTIGGDTYYADSVKGRFTISRDNAKNTVYLQMNSLKPEDTAVYYCARDRYDNPYDQDLDYWGQGTQVTVSS | low polyreactivity |
| QVQLVESGGGLVQSGGSLRLSCAASGRIFRYYAMGSYRQAPGKERELVSAITRGGSTNYADSVKGRFTISRDNAKNTVYLQMNSLKPEDTADYYCATRQSWYPRWMDYWGQGSQVTVSS | high polyreactivity |
| QVQLVESGGGLVQSGGSLRLSCAASGRIFVPNAMGWYRQAPGKERELVAAITGSGGSTYADSVKGRFTISRDNAKNTVYLQMNSLNPEDTAVYYCAKKTWYSYYWGQGTQVTVSS | high polyreactivity |
| QVQLVESGGGLVQSGGSLRLSCAASGRTFRYYAMGWYRQAPGKERELVAAISSSGDRTYYADSVKGRFTISRDNAKNTVYLQMNSLKPEDTAVYFCAADRGARGDYWGQGTQVTVSS | high polyreactivity |
| QVQLVESGGGLVQSGGSLRLSCAASGRTFYRYAMGWYRQAPGKERELVAAISYSTTRTYYADSVKGRFTISRDIAKNTVYLQMNSLKPEETAVYYCAAYGWSRFGYDYWGQGSQVTVSS | high polyreactivity |
